These results are taken from publication PMC4227867, “Analysis of Nidogen-1/Laminin γ1 Interaction by Cross-Linking, Mass Spectrometry, and Computational Modeling Reveals Multiple Binding Modes” (PLoS ONE, 2014).

Test [1] has as its target T1, full-length nidogen-1 (murine, UniProt P10493 29-1245).
T1 construct: For photo-cross-linking the protein was made in Leu- and Met-depleted medium with photo-Met and photo-Leu; 13-25% of all leucines and methionines were partially replaced; also called entactin; source: HEK 293 EBNA cells, purified (Nickel-NTA Superflow); not shown: (His)6, N-terminal, kept
T1 sequence (looked up): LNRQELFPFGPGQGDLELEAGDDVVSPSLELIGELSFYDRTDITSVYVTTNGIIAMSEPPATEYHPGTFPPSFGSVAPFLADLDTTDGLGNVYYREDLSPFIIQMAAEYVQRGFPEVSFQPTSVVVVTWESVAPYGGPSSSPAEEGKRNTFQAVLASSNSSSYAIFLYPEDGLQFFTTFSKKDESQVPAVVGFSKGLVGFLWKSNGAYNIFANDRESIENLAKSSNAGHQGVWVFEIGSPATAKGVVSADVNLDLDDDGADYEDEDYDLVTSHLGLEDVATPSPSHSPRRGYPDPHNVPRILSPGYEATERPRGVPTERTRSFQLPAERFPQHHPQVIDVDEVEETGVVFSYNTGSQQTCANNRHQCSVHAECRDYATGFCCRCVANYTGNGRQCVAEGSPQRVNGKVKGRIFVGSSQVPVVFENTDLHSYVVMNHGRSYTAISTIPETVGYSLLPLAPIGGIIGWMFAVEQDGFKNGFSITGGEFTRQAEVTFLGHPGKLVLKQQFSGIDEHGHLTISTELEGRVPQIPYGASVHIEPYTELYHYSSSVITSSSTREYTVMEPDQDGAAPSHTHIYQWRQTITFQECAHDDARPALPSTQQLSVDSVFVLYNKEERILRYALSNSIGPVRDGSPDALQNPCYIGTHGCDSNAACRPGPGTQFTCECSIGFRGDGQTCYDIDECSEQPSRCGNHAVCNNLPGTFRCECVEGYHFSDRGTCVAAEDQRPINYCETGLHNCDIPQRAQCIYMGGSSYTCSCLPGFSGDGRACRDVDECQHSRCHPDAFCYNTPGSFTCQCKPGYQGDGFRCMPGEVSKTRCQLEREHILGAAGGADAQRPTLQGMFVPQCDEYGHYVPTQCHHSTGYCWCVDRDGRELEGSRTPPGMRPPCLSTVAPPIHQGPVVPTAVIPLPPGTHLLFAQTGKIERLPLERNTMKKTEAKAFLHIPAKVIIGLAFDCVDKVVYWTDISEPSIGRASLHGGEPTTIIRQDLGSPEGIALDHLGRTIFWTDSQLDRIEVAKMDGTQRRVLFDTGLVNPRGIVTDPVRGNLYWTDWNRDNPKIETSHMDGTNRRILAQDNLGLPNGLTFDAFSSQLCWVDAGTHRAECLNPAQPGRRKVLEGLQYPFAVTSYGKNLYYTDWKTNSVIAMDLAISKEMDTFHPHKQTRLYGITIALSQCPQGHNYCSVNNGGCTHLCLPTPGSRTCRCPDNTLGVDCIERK
As to the kind of experiment: SPR; nidogen-1 immobilised by amine coupling on a CM5 chip; laminin variants as mobile analytes; single-cycle kinetics, 25°C, 20 mM HEPES, 100 mM NaCl, 0.05% Tween 20, pH 7.5; 1:1 binding model; apparent Kd. On the technique in general: Surface plasmon resonance follows binding to a sensor surface in real time, without labels.

For test [2], the target named is T1, full-length nidogen-1. As to the kind of experiment: ELISA; laminin fragments coated at 10 µg/ml in TBS overnight at 4°C; nidogen-1 0.03 nM to 234 nM in TBS-T/1% BSA, 1 h at room temperature; detected by anti-(His)6 antibody; apparent Kd. The settings on record: both partners purified. (In an ELISA, binding on a coated surface is turned into a signal by an enzyme label.)

Test [3] concerns the target laminin γ1 short arm (murine). Described as above.
The target in test [4] is laminin γ1 LEb2–4 N836D (murine). Described as above.

For “laminin γ1 short arm (domain or fragment)”, the Kd with full-length nidogen-1 [1] stood at 12 nM.

B1: laminin γ1 LEb2–4 (domain or fragment, murine)
chain: QPCPCPGGSSCAIVPKTKEVVCTHCPTGTAGKRCELCDDGYFGDPLGSNGPVRLCRPCQCNDNIDPNAVGNCNRLTGECLKCIYNTAGFYCDRCKEGFFGNPLAPNPADKCKACACNPYGTVQQQSSCNPVTGQCQCLPHVSGRDCGTCDPGYYNLQSGQGCER
notes: For photo-cross-linking made with photo-Met and photo-Leu partially incorporated; the limits of LEb2–4 may be marked there; also called laminin γ1 LEb2–4 wild type; LEb2–4 fragment; source: HEK 293 EBNA cells, purified (Strep-Tactin sepharose)
For B1, in the test with full-length nidogen-1 [2], the Kd is 1.4 nM.

B2: laminin γ1 short arm N836D (domain or fragment)
chain: AMDECADEGGRPQRCMPEFVNAAFNVTVVATNTCGTPPEEYCVQTGVTGVTKSCHLCDAGQQHLQHGAAFLTDYNNQADTTWWQSQTMLAGVQYPNSINLTLHLGKAFDITYVRLKFHTSRPESFAIYKRTREDGPWIPYQYYSGSCENTYSKANRGFIRTGGDEQQALCTDEFSDISPLTGGNVAFSTLEGRPSAYNFDNSPVLQEWVTATDIRVTLNRLNTFGDEVFNEPKVLKSYYYAISDFAVGGRCKCNGHASECVKNEFDKLMCNCKHNTYGVDCEKCLPFFNDRPWRRATAESASESLPCDCNGRSQECYFDPELYRSTGHGGHCTNCRDNTDGAKCERCRENFFRLGNTEACSPCHCSPVGSLSTQCDSYGRCSCKPGVMGDKCDRCQPGFHSLTEAGCRPCSCDLRGSTDECNVETGRCVCKDNVEGFNCERCKPGFFNLESSNPKGCTPCFCFGHSSVCTNAVGYSVYDISSTFQIDEDGWRVEQRDGSEASLEWSSDRQDIAVISDSYFPRYFIAPVKFLGNQVLSYGQNLSFSFRVDRRDTRLSAEDLVLEGAGLRVSVPLIAQGNSYPSETTVKYIFRLHEATDYPWRPALSPFEFQKLLNNLTSIKIRGTYSERTAGYLDDVTLQSARPGPGVPATWVESCTCPVGYGGQFCETCLPGYRRETPSLGPYSPCVLCTCNGHSETCDPETGVCDCRDNTAGPHCEKCSDGYYGDSTLGTSSDCQPCPCPGGSSCAIVPKTKEVVCTHCPTGTAGKRCELCDDGYFGDPLGSNGPVRLCRPCQCNDNIDPDAVGNCNRLTGECLKCIYNTAGFYCDRCKEGFFGNPLAPNPADKCKACACNPYGTVQQQSSCNPVTGQCQCLPHVSGRDCGTCDPGYYNLQSGQGCERCDCHALGSTNGQCDIRTGQCECQPGITGQHCERCETNHFGFGPEGCKPCDCHHEGSL
modifications: Secreted from HEK293 EBNA cells, so disulfide-bonded LE modules and likely N-glycans. Double Strep tag II omitted. Paper numbering (Asn-836) is one higher than UniProt; classical Asn-802 + 33-residue
On to B2, for which, in the test with full-length nidogen-1 [2], the Kd came to 45 nM.

B3: full-length nidogen-1 (natural protein)
chain: LNRQELFPFGPGQGDLELEAGDDVVSPSLELIGELSFYDRTDITSVYVTTNGIIAMSEPPATEYHPGTFPPSFGSVAPFLADLDTTDGLGNVYYREDLSPFIIQMAAEYVQRGFPEVSFQPTSVVVVTWESVAPYGGPSSSPAEEGKRNTFQAVLASSNSSSYAIFLYPEDGLQFFTTFSKKDESQVPAVVGFSKGLVGFLWKSNGAYNIFANDRESIENLAKSSNAGHQGVWVFEIGSPATAKGVVSADVNLDLDDDGADYEDEDYDLVTSHLGLEDVATPSPSHSPRRGYPDPHNVPRILSPGYEATERPRGVPTERTRSFQLPAERFPQHHPQVIDVDEVEETGVVFSYNTGSQQTCANNRHQCSVHAECRDYATGFCCRCVANYTGNGRQCVAEGSPQRVNGKVKGRIFVGSSQVPVVFENTDLHSYVVMNHGRSYTAISTIPETVGYSLLPLAPIGGIIGWMFAVEQDGFKNGFSITGGEFTRQAEVTFLGHPGKLVLKQQFSGIDEHGHLTISTELEGRVPQIPYGASVHIEPYTELYHYSSSVITSSSTREYTVMEPDQDGAAPSHTHIYQWRQTITFQECAHDDARPALPSTQQLSVDSVFVLYNKEERILRYALSNSIGPVRDGSPDALQNPCYIGTHGCDSNAACRPGPGTQFTCECSIGFRGDGQTCYDIDECSEQPSRCGNHAVCNNLPGTFRCECVEGYHFSDRGTCVAAEDQRPINYCETGLHNCDIPQRAQCIYMGGSSYTCSCLPGFSGDGRACRDVDECQHSRCHPDAFCYNTPGSFTCQCKPGYQGDGFRCMPGEVSKTRCQLEREHILGAAGGADAQRPTLQGMFVPQCDEYGHYVPTQCHHSTGYCWCVDRDGRELEGSRTPPGMRPPCLSTVAPPIHQGPVVPTAVIPLPPGTHLLFAQTGKIERLPLERNTMKKTEAKAFLHIPAKVIIGLAFDCVDKVVYWTDISEPSIGRASLHGGEPTTIIRQDLGSPEGIALDHLGRTIFWTDSQLDRIEVAKMDGTQRRVLFDTGLVNPRGIVTDPVRGNLYWTDWNRDNPKIETSHMDGTNRRILAQDNLGLPNGLTFDAFSSQLCWVDAGTHRAECLNPAQPGRRKVLEGLQYPFAVTSYGKNLYYTDWKTNSVIAMDLAISKEMDTFHPHKQTRLYGITIALSQCPQGHNYCSVNNGGCTHLCLPTPGSRTCRCPDNTLGVDCIERK
As for B3, the Kd in test [3] was found to be 1.1 nM; in test [4], 34 nM.
